Paper doi:10.1101/2023.07.25.550451 (bioRxiv, 2023)
Read-outs that look alike come from different tables or passages of the source. * marks the point of attachment. Biotin = O=C1N[C@H]2[C@H](CS[C@H]2CCCCC(=O)*)N1

B1: GST-FAM104A isoform 2 (natural protein)
chain: not shown
B2: GST-FAM104A isoform 1 (natural protein)
chain: not shown
B3: biotinylated peptide spanning the conserved C-terminal alpha-helix and flanking residues of FAM104A (C180-G203 of isoform 1) (peptide)
peptide: Biotin-CQGLYFHINQTLREAHFHSLQHRG-OH
SMILES: CC[C@H](C)[C@H](NC(=O)[C@H](Cc1c[nH]cn1)NC(=O)[C@H](Cc1ccccc1)NC(=O)[C@H](Cc1ccc(O)cc1)NC(=O)[C@H](CC(C)C)NC(=O)CNC(=O)[C@H](CCC(N)=O)NC(=O)[C@H](CS)NC(=O)CCCC[C@@H]1SC[C@@H]2NC(=O)N[C@@H]21)C(=O)N[C@@H](CC(N)=O)C(=O)N[C@@H](CCC(N)=O)C(=O)N[C@H](C(=O)N[C@@H](CC(C)C)C(=O)N[C@@H](CCCNC(=N)N)C(=O)N[C@@H](CCC(=O)O)C(=O)N[C@@H](C)C(=O)N[C@@H](Cc1c[nH]cn1)C(=O)N[C@@H](Cc1ccccc1)C(=O)N[C@@H](Cc1c[nH]cn1)C(=O)N[C@@H](CO)C(=O)N[C@@H](CC(C)C)C(=O)N[C@@H](CCC(N)=O)C(=O)N[C@@H](Cc1c[nH]cn1)C(=O)N[C@@H](CCCNC(=N)N)C(=O)NCC(=O)O)[C@@H](C)O

Columns and labels:
[1] = molecular target: T1, p97, wild-type, full-length (recombinant) (human, UniProt P55072 1-806); assay: pull-down
[2] = molecular target: T1, p97, wild-type, full-length …; assay: pull-down; remark: listed apart in the source

T1 sequence (P55072 whole entry): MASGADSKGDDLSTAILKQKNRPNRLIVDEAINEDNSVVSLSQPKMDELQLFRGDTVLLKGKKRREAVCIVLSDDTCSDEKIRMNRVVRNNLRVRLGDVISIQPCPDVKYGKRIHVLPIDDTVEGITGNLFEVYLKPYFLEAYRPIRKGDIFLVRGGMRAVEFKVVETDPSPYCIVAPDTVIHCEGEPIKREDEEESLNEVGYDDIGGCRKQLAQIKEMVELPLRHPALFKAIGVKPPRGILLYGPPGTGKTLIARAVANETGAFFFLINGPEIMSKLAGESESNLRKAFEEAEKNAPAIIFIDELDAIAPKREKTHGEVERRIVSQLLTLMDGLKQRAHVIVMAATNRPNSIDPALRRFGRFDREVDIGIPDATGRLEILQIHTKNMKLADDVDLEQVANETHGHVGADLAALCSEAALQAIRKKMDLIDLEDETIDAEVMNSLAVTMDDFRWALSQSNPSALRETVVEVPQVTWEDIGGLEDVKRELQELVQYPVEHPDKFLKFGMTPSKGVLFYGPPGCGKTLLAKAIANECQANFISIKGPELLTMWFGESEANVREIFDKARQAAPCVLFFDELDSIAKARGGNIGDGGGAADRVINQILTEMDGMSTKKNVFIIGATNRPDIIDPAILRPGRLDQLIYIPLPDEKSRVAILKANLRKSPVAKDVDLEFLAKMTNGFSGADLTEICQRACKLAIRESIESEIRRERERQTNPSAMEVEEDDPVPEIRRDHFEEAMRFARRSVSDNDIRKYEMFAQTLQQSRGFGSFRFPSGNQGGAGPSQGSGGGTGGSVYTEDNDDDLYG

Binder	binding result [1]	binding result [2]
B1	binds	–
B2	binds	–
B3	–	binds
